Test [1] addresses Vangl2 lacking the Prickle-binding domain (UniProt Q91ZD4). The test can be described thus: co-IP.
The target in test [2] is Vangl2 lacking the PDZ-binding motif at the C-terminal end. Description: co-IP.
Sequence of Vangl2 lacking the PDZ-binding motif at the C-terminal end (P84889 whole entry): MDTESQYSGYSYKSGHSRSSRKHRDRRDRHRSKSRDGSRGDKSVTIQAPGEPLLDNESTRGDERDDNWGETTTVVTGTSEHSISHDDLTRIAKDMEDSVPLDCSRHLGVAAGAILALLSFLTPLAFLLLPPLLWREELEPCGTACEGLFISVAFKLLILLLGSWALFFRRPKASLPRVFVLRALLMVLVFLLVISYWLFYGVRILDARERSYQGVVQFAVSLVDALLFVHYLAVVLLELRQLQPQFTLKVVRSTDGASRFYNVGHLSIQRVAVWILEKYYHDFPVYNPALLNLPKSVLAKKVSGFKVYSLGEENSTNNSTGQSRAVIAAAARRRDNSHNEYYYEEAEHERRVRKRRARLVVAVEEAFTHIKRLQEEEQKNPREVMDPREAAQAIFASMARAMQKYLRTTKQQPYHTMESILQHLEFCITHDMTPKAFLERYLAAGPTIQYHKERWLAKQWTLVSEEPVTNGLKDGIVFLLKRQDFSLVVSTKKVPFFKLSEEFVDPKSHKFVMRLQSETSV

Sequence of Vangl2 lacking the Prickle-binding domain (Q91ZD4 whole entry, the tested form may be a part): as the sequence (P84889 whole entry) above

For “E-cadherin (from UniProt P09803 157-884) (natural protein)”, the association in co-IP, percent of WT is 28.4% in test [1] and 87.1% in test [2].

The values above are taken from publication PMC4221783.
